Experimental data published in the supplement of paper PMC10724198.
± gives the standard deviation of the averaged measurements.

Assays:
Saccharomyces cerevisiae [1] = assay: protein stability index of tFT-peptide fusion (C-terminal peptide) (PSI (0-1 scale)); higher = more stable (slower turnover); details: genetic background: wild type; temperature: 30 C
Saccharomyces cerevisiae [2] = assay: as above
Procedure: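 MPS profiling in S. cerevisiae of the tFT-X12 degron library: putative degron peptides plus stable controls, 12 aa, fused to the C-terminus of a sfGFP-mCherry timer. Cells are FACS-sorted into 8 mCherry/sfGFP bins and deep-sequenced. PSI runs from 0 (unstable) to 1 (stable). Backgrounds are wild type, das1Δ and doa10Δ at 30 °C, and wild type, das1Δ, cdc34-1 and cdc53-1 at 37 °C; 2-3 technical replicates each.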

[3] = genetic background: cdc34-1, temperature: 37 C
[4] = genetic background: cdc53-1, temperature: 37 C
[5] = genetic background: das1 deletion, temperature: 30 C
[6] = genetic background: das1 deletion, temperature: 37 C
[7] = genetic background: doa10 deletion, temperature: 30 C
[8] = genetic background: wild type, temperature: 30 C
[9] = genetic background: wild type, temperature: 37 C
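Note: PSI is a weighted mean of sequencing reads over stability bins, variants kept only with over 10 reads, mCherry proximal and sfGFP distal, peptide attached via GGGS linker.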

Sequence	protein stability index (Saccharomyces cerevisiae [1])	protein stability index (Saccharomyces cerevisiae [2]; [3])	protein stability index (Saccharomyces cerevisiae [2]; [4])	protein stability index (Saccharomyces cerevisiae [2]; [5])	protein stability index (Saccharomyces cerevisiae [2]; [6])	protein stability index (Saccharomyces cerevisiae [2]; [7])	protein stability index (Saccharomyces cerevisiae [2]; [8])	protein stability index (Saccharomyces cerevisiae [2]; [9])
WVGGVLLSVVGG	0.245 ± 0.014	0.158 ± 0.014	0.413 ± 0.041	0.213 ± 0.028	0.349 ± 0.0084	0.179 ± 0.01	0.192 ± 0.029	0.399 ± 0.059
RAPPPSSLLSPP	0.402 ± 0.013	0.6612 ± 0.0063	0.724 ± 0.016	0.6499 ± 0.0057	0.718 ± 0.027	0.687 ± 0.0087	0.671 ± 0.029	0.706 ± 0.037
VFRLLLFFVFVF	0.37 ± 0.0056	0.266 ± 0.017	0.183 ± 0.068	0.287 ± 0.046	0.3848 ± 0.0031	0.279 ± 0.0075	0.236 ± 0.034	0.354 ± 0.015
PPAPTPFPPSPR	0.593 ± 0.14	0.687 ± 0.037	0.7216 ± 0.0033	0.669 ± 0.034	0.741 ± 0.018	0.697 ± 0.026	0.672 ± 0.024	0.728 ± 0.01
RLFLLIECSSGF	0.395 ± 0.045	0.451 ± 0.005	0.491 ± 0.0068	0.31 ± 0.046	0.493 ± 0.024	0.271 ± 0.0039	0.293 ± 0.035	0.508 ± 0.019
FFLKPVPSLFLC	0.14 ± 0.014	0.388 ± 0.015	0.5971 ± 0.005	0.519 ± 0.021	0.6657 ± 0.0034	0.0796 ± 0.014	0.0677 ± 0.0064	0.0767 ± 0.016
SLSIFCLMLMLF	0.4537 ± 0.0037	0.564 ± 0.04	0.601 ± 0.029	0.467 ± 0.016	0.565 ± 0.025	0.425 ± 0.015	0.406 ± 0.021	0.512 ± 0.012
EWGLGEIVVKVA	0.259 ± 0.057	0.563 ± 0.025	0.654 ± 0.013	0.534 ± 0.011	0.684 ± 0.015	0.138 ± 0.0032	0.162 ± 0.013	0.2153 ± 0.0017
ETQKEKRENAKP	0.713 ± 0.0091	0.649 ± 0.028	0.70222 ± 0.00044	0.646 ± 0.032	0.71 ± 0.035	0.6492 ± 0.0039	0.623 ± 0.016	0.677 ± 0.024
FGFFLFIFFFFR	0.402 ± 0.12	0.246 ± 0.044	0.295 ± 0.027	0.301 ± 0.032	0.429 ± 0.015	0.333 ± 0.0034	0.276 ± 0.039	0.349 ± 0.031
RNNLHKKIRRGY	0.413 ± 0.042	0.681 ± 0.046	0.752 ± 0.0082	0.661 ± 0.043	0.745 ± 0.033	0.184 ± 0.028	0.251 ± 0.037	0.458 ± 0.013
IIFACFYGVFLM	0.187 ± 0.0052	0.0485 ± 0.025	0.0619 ± 0.03	0.141 ± 0.019	0.169 ± 0.024	0.282 ± 0.052	0.0949 ± 0.036	0.109 ± 0.0083
WFSVRQLVFVSG	0.218 ± 0.014	0.119 ± 0.011	0.146 ± 0.018	0.163 ± 0.028	0.236 ± 0.0094	0.124 ± 0.0015	0.163 ± 0.019	0.218 ± 0.0069
KKKEIIKIIKIN	0.127 ± 0.013	0.311 ± 0.033	0.643 ± 0.044	0.697 ± 0.065	0.72 ± 0.048	0.0624 ± 0.022	0.0729 ± 0.034	0.0954 ± 0.039
GKKKREWKKNRI	0.382 ± 0.021	0.6893 ± 0.00074	0.733 ± 0.0097	0.645 ± 0.022	0.711 ± 0.013	0.217 ± 0.026	0.257 ± 0.041	0.552 ± 0.0071
PRLWLYCLIISL	0.2062 ± 0.00075	0.173 ± 0.032	0.214 ± 0.016	0.186 ± 0.039	0.335 ± 0.015	0.157 ± 0.011	0.14 ± 0.03	0.277 ± 0.022
CRLCVFGVWFCG	0.499 ± 0.033	0.532 ± 0.033	0.535 ± 0.012	0.443 ± 0.018	0.5751 ± 0.0034	0.448 ± 0.037	0.412 ± 0.022	0.5405 ± 0.0014
LRFVCALGYCVW	0.471 ± 0.0098	0.577 ± 0.042	0.645 ± 0.019	0.485 ± 0.027	0.6011 ± 0.0042	0.443 ± 0.015	0.461 ± 0.029	0.574 ± 0.0089
WFFPVSPPVMAS	0.288 ± 0.013	0.181 ± 0.027	0.1945 ± 0.00051	0.202 ± 0.032	0.3 ± 0.013	0.175 ± 0.004	0.211 ± 0.026	0.265 ± 0.0075
SSVLLMFFCFVC	0.262 ± 0.023	0.256 ± 0.02	0.388 ± 0.015	0.318 ± 0.014	0.476 ± 0.025	0.159 ± 0.012	0.164 ± 0.011	0.252 ± 0.019

Sequence	protein stability index (Saccharomyces cerevisiae [1])	protein stability index (Saccharomyces cerevisiae [2]; [3])	protein stability index (Saccharomyces cerevisiae [2]; [4])	protein stability index (Saccharomyces cerevisiae [2]; [5])	protein stability index (Saccharomyces cerevisiae [2]; [6])	protein stability index (Saccharomyces cerevisiae [2]; [7])	protein stability index (Saccharomyces cerevisiae [2]; [8])	protein stability index (Saccharomyces cerevisiae [2]; [9])
GILLLLISRVVF	0.371 ± 0.011	0.278 ± 0.032	0.373 ± 0.025	0.229 ± 0.047	0.469 ± 0.0056	0.197 ± 0.039	0.227 ± 0.021	0.413 ± 0.0093
REAFVVLAVFFH	0.328 ± 0.04	0.199 ± 0.0062	0.321 ± 0.054	0.226 ± 0.019	0.406 ± 0.02	0.193 ± 0.0039	0.199 ± 0.03	0.315 ± 0.05
SVFGLLSVCFFY	0.472 ± 0.019	0.488 ± 0.032	0.5669 ± 0.002	0.385 ± 0.029	0.604 ± 0.0077	0.358 ± 0.016	0.398 ± 0.018	0.549 ± 0.022
FFSPFFFFLFRL	0.414 ± 0.058	0.306 ± 0.11	0.309 ± 0.0057	0.366 ± 0.035	0.453 ± 0.0074	0.483 ± 0.019	0.351 ± 0.0064	0.3971 ± 0.0026
VIYYVRVGLVLS	0.203 ± 0.025	0.0324 ± 0.0007	0.115 ± 0.053	0.119 ± 0.03	0.167 ± 0.0084	0.108 ± 0.016	0.117 ± 0.045	0.126 ± 0.016
TLCCLVCSQGVV	0.484 ± 0.016	0.478 ± 0.051	0.598 ± 0.013	0.471 ± 0.027	0.5217 ± 0.0031	0.482 ± 0.031	0.479 ± 0.039	0.526 ± 0.01
FSVLLLANFCFF	0.482 ± 0.0056	0.498 ± 0.031	0.516 ± 0.0072	0.409 ± 0.037	0.554 ± 0.015	0.363 ± 0.016	0.407 ± 0.043	0.528 ± 0.015
DSGMLDFLLMAW	0.598 ± 0.16	0.541 ± 0.039	0.545 ± 0.015	0.432 ± 0.035	0.57175 ± 0.00049	0.421 ± 0.011	0.451 ± 0.013	0.53 ± 0.0056
AGTLLLGYGILA	0.43845 ± 0.00034	0.454 ± 0.019	0.464 ± 0.038	0.342 ± 0.023	0.5107 ± 0.00054	0.309 ± 0.017	0.349 ± 0.023	0.486 ± 0.0055
WVRLWGVLEAQG	0.3627 ± 0.0029	0.349 ± 0.013	0.445 ± 0.022	0.334 ± 0.028	0.369 ± 0.0011	0.344 ± 0.028	0.332 ± 0.012	0.3675 ± 0.0028
CMIACYALLRLL	0.11 ± 0.039	0.176 ± 0.023	0.256 ± 0.011	0.346 ± 0.036	0.477 ± 0.0079	0.0799 ± 0.021	0.0777 ± 0.016	0.0702 ± 0.0087
CCSRFLMLRILV	0.146 ± 0.014	0.197 ± 0.062	0.208 ± 0.015	0.287 ± 0.041	0.438 ± 0.026	0.118 ± 0.0037	0.1 ± 0.0099	0.126 ± 0.0093
GFRVTTCASWIC	0.177 ± 0.02	0.557 ± 0.016	0.734 ± 0.011	0.612 ± 0.015	0.729 ± 0.015	0.143 ± 0.012	0.15 ± 0.027	0.191 ± 0.012
LPPFLSSLPSSP	0.704 ± 0.019	0.715 ± 0.027	0.769 ± 0.016	0.66 ± 0.017	0.7635 ± 0.0039	0.668 ± 0.031	0.663 ± 0.011	0.732 ± 0.013
VCVFFRLCIVWY	0.174 ± 0.036	0.061 ± 0.0092	0.101 ± 0.0031	0.127 ± 0.017	0.171 ± 0.0065	0.115 ± 0.013	0.103 ± 0.021	0.145 ± 0.012
VEIKSKRMLVVI	0.45639 ± 0.00022	0.5115 ± 0.0011	0.538 ± 0.039	0.426 ± 0.028	0.578 ± 0.0069	0.287 ± 0.013	0.322 ± 0.04	0.4749 ± 0.0012
FVMLSFLVSSLP	0.4255 ± 0.0037	0.404 ± 0.006	0.489 ± 0.039	0.346 ± 0.028	0.513 ± 0.006	0.3038 ± 0.0018	0.34 ± 0.017	0.495 ± 0.0055
HDRLRGVFWRVP	0.439 ± 0.014	0.669 ± 0.066	0.739 ± 0.01	0.655 ± 0.038	0.74321 ± 0.00071	0.263 ± 0.015	0.308 ± 0.032	0.5752 ± 0.0019
VSVFSLFLFLRV	0.421 ± 0.0044	0.25 ± 0.047	0.194 ± 0.022	0.357 ± 0.03	0.413 ± 0.045	0.531 ± 0.031	0.35 ± 0.03	0.353 ± 0.049
